Experimental data as given in publication PMC6983858.

Tests used:
[1] = target: full-length human neurofibromin (His6-tev-NF1, 2–2818) (human) (UniProt P21359); assay: SEC-MALS; single purified proteins; Superose-6 Increase or Superdex S-200 10/300 GL, Wyatt Heleos and Optilab T-Rex; BSA as standard
[2] = target: full-length human neurofibromin (His6-tev-NF1, 2–2818) (human) (UniProt P21359); assay: SAXS + SANS; full-length neurofibromin in solution, SAXS at 0.5 and 1.0 mg/ml, SANS at 1 mg/ml, 20 °C; molar mass from scattering
[3] = target: full-length human neurofibromin (His6-tev-NF1, 2–2818) (human) (UniProt P21359); assay: AUC; sedimentation velocity and equilibrium of full-length neurofibromin, 1.2 μM to 25 nM, 20 °C, 20 mM HEPES pH 7.4, 300 mM NaCl, 1 mM TCEP; dimer to monomers

Question: What does the source list for “full-length human neurofibromin (His6-tev-NF1, 2–2818), P21359-2 2-2818”?
Answer: stoichiometry N [1]: 2; stoichiometry N [2]: 2; Kd [3]: < 1 nM
